These results are taken from EP4471049A1 (Zealand Pharma A/S, priority 2023, dated 2024).

The nature of series [1]: Peptide stability in simulated intestinal fluid (SIF). Format: in vitro ADME. To be noted: pig, simulated intestinal fluid (SIF) with porcine pancreatin; 4 h, 37 °C, pH 6.8, porcine pancreatin 10 g/L, 10 µM; read-out: SIF (% remaining 4 h). The protocol:
SGF was prepared by dissolving sodium chloride (0.2 g) in 50 mL of water. A volume of 0.7 mL of 10 M HCl was added to adjust the pH of the solution to 1.2 and the volume made up to 100 mL with water. […] SIF was prepared by dissolving monobasic potassium phosphate (0.68 g) in 50 mL of water and adjusting the pH to 6.8 with 1 M NaOH. The volume was subsequently made up to 100 mL with water. 200 mg porcine pancreatin (P1625, Sigma Aldrich) was gently dissolved into 20 mL preheated (37 °C) solution (10 g/L) immediately prior to the incubation.
The incubation was performed at 37 °C with gentle shaking. […] After the last timepoint, the sampling plate was mixed for 10 min on a shaking table and centrifuged 10 min at 2200 g. 70 µL resulting supernatant was diluted with 150 µL water, mixed and centrifugated before analysis by liquid chromatography high resolution mass spectrometry. […] Percent remaining at each timepoint was calculated relative to timepoint zero based on absolute peak areas.
Compounds with a SIF stability (after 4 h) above 70% are considered highly SIF stable.

The next series has as its target T1, human IL-23R (Homo sapiens, UniProt Q5VWK5).
T1 sequence (Q5VWK5 22-629): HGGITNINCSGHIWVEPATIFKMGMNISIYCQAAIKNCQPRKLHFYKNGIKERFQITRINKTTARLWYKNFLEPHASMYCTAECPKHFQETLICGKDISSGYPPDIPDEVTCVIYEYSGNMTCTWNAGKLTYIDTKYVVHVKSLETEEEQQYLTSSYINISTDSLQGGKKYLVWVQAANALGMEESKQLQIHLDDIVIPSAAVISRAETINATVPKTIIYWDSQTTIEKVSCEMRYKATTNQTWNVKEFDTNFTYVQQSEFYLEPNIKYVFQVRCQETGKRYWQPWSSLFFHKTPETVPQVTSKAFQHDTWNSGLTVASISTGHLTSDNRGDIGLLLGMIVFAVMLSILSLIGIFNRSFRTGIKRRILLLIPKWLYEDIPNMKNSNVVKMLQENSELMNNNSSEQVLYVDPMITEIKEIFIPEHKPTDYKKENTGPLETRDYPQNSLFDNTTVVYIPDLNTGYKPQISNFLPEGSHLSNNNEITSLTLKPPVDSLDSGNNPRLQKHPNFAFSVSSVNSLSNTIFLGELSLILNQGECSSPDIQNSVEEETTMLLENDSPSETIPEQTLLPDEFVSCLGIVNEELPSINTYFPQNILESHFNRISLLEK
In words: biochemical. The gist of the method: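 BRET displacement of a TAMRA-labelled reference compound from N-terminal Nanoluc-IL-23R fusion protein in membranes from stably transfected HEK293 cells. Incubation 2 h at room temperature, then Nanoluc substrate was added and the TAMRA/Nanoluc ratio read. IC50 and maximal displacement came from 4-parameter logistic fits.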

Series [2] has as its target T2, Nluc-IL23R fusion protein (human, UniProt Q5VWK5 22-629).
T2 construct: range 22-629; expressed with a secretion signal in HEK293 cells; used as crude membrane preparation; also called hIL-23R; human IL-23R; not shown: Nanoluc protein from the expression plasmid N1371 (Promega), N-terminal of IL-23R
T2 sequence (looked up): T1 sequence (Q5VWK5 22-629)
Put plainly: BRET competition vs TAMRA-labelled peptide, Nluc-IL23R membranes. For orientation: In BRET a luciferase serves as donor, and the signal depends on an acceptor being close.

As a reminder, the IC50 is the concentration that gives 50% inhibition. Low values mean greater potency in that assay, high ones weaker potency in that assay.

*1 amine or outer side, *2 acyl side, *3 side chain or, on linkers, in order; H or OH if unused. Where a SMILES comes first, the peptide text is derived from it. Bridges are numbered along the chain shown (N, C = ends). Primed or numbered codes have the meaning given here. Where no end group is shown, it is not given here. [ ]: non-standard residue; d: D form. 4‑Aminomethyl‑phenylacetyl = 4-aminomethyl-phenylacetyl unit, its amine closes the lactam, O=C(Cc1ccc(CN[*:1])cc1)[*:2]; Q(pyrrolidin)(3) = Gln whose side-chain amide N is in a pyrrolidine ring, O=C(CC[C@H](N[*:1])C(=O)[*:2])N1CCCC1; 2Nal = N[C@@H](Cc1ccc2ccccc2c1)C(=O)O; AEF = NCCOc1ccc(C[C@H](N)C(=O)O)cc1; X1 = O=C(Cc1ccc(CN[*:1])cc1)[*:2]; 3Pal = N[C@@H](Cc1cccnc1)C(=O)O; Cit = NC(=O)NCCC[C@H](N)C(=O)O; αMeL = CC(C)C[C@](C)(N)C(=O)O; Orn = NCCC[C@H](N)C(=O)O; Q(Me) = not defined here; Dab = NCC[C@H](N)C(=O)O

In the case of `CNC(=O)[C@H](Cc1cccnc1)NC(=O)[C@H](CO)NC(=O)[C@@H]1CCC(=O)NCc2ccc(cc2)CC(=O)N[C@@H](CO)C(=O)N[C@H]2CCC(=O)NCC[C@H](NC(=O)[C@H](CCC(N)=O)NC(=O)[C@H](Cc3c[nH]c4ccccc34)NC2=O)C(=O)N[C@@H](Cc2ccc(OCCN)cc2)C(=O)N[C@@H](Cc2ccc3ccccc3c2)C(=O)N[C@@](C)(CC(C)C)C(=O)N1` [Compound 31, [4-Aminomethyl-phenylacetyl](1c)*SE(2c)WQ[Dab](2c)[Y(2-aminoethoxy)][2-Nal][2-Me-Leu]E(1c)S[3-(3-Pyridyl)-Ala]-[NHMe]] ([X1]SEWQ[Dab][AEF][2Nal][αMeL]ES[3Pal]-NHMe; lactam 3-6, N-10), in series [1], the fraction remaining at 4 h, 10 µM is 41%. For the same molecule, at human IL-23R, the “% displacement (hIL-23R binding)” value is recorded as 97% and the IC50 was 0.012 nM. Consider `CNC(=O)[C@H](Cc1cccnc1)NC(=O)[C@H](CCN)NC(=O)[C@@H]1CCC(=O)NCc2ccc(cc2)CC(=O)N[C@@H](CO)C(=O)N[C@H]2CCC(=O)NCC[C@H](NC(=O)[C@H](CCCN)NC(=O)[C@H](Cc3c[nH]c4ccccc34)NC2=O)C(=O)N[C@@H](Cc2ccc(OCCN)cc2)C(=O)N[C@@H](Cc2ccc3ccccc3c2)C(=O)N[C@@](C)(CC(C)C)C(=O)N1` [Compound 28, [4-Aminomethyl-phenylacetyl](1c)*SE(2c)W[Orn][Dab](2c)[Y(2-aminoethoxy)][2-Nal][2-Me-Leu]E(1c)[Dab][3-(3-Pyridyl)-Ala]-[NHMe]] ([X1]SEW[Orn][Dab][AEF][2Nal][αMeL]E[Dab][3Pal]-NHMe; lactam 3-6, N-10), for which the share remaining at 4 h, 10 µM in series [1] was 110%. Also, the “% displacement (hIL-23R binding)” value on human IL-23R is 97%.

B1: Compound 24 (peptide)
peptide: [4‑Aminomethyl‑phenylacetyl]SEWK(Ac)[Dab][AEF][2Nal][αMeL]E[Dab][3Pal]-NHMe
modifications: lactam N-10, 3-6
SMILES: CNC(=O)[C@H](Cc1cccnc1)NC(=O)[C@H](CCN)NC(=O)[C@@H]1CCC(=O)NCc2ccc(cc2)CC(=O)N[C@@H](CO)C(=O)N[C@H]2CCC(=O)NCC[C@H](NC(=O)[C@H](CCCCNC(C)=O)NC(=O)[C@H](Cc3c[nH]c4ccccc34)NC2=O)C(=O)N[C@@H](Cc2ccc(OCCN)cc2)C(=O)N[C@@H](Cc2ccc3ccccc3c2)C(=O)N[C@@](C)(CC(C)C)C(=O)N1
Molecule B1 registered a % displacement (hIL-23R binding) in series [2] of 97%.

B2: Compound 34 (peptide)
peptide: [4‑Aminomethyl‑phenylacetyl]SEWQ[Dab][AEF][2Nal][αMeL]EH[3Pal]-NHMe
modifications: lactam N-10, 3-6
SMILES: CNC(=O)[C@H](Cc1cccnc1)NC(=O)[C@H](Cc1c[nH]cn1)NC(=O)[C@@H]1CCC(=O)NCc2ccc(cc2)CC(=O)N[C@@H](CO)C(=O)N[C@H]2CCC(=O)NCC[C@H](NC(=O)[C@H](CCC(N)=O)NC(=O)[C@H](Cc3c[nH]c4ccccc34)NC2=O)C(=O)N[C@@H](Cc2ccc(OCCN)cc2)C(=O)N[C@@H](Cc2ccc3ccccc3c2)C(=O)N[C@@](C)(CC(C)C)C(=O)N1
Molecule B2 returned a % displacement (hIL-23R binding) in series [2] of 90%.

B3: Compound 33 (peptide)
peptide: [4‑Aminomethyl‑phenylacetyl]SEWQ[Dab][AEF][2Nal][αMeL]EQ[3Pal]-NHMe
modifications: lactam N-10, 3-6
SMILES: CNC(=O)[C@H](Cc1cccnc1)NC(=O)[C@H](CCC(N)=O)NC(=O)[C@@H]1CCC(=O)NCc2ccc(cc2)CC(=O)N[C@@H](CO)C(=O)N[C@H]2CCC(=O)NCC[C@H](NC(=O)[C@H](CCC(N)=O)NC(=O)[C@H](Cc3c[nH]c4ccccc34)NC2=O)C(=O)N[C@@H](Cc2ccc(OCCN)cc2)C(=O)N[C@@H](Cc2ccc3ccccc3c2)C(=O)N[C@@](C)(CC(C)C)C(=O)N1
For B3, the % displacement (hIL-23R binding) in series [2] turned out to be 92%.

B4: Compound 28 (peptide)
peptide: [4‑Aminomethyl‑phenylacetyl]SEW[Orn][Dab][AEF][2Nal][αMeL]E[Dab][3Pal]-NHMe
modifications: lactam N-10, 3-6
SMILES: CNC(=O)[C@H](Cc1cccnc1)NC(=O)[C@H](CCN)NC(=O)[C@@H]1CCC(=O)NCc2ccc(cc2)CC(=O)N[C@@H](CO)C(=O)N[C@H]2CCC(=O)NCC[C@H](NC(=O)[C@H](CCCN)NC(=O)[C@H](Cc3c[nH]c4ccccc34)NC2=O)C(=O)N[C@@H](Cc2ccc(OCCN)cc2)C(=O)N[C@@H](Cc2ccc3ccccc3c2)C(=O)N[C@@](C)(CC(C)C)C(=O)N1
Turning to B4, in series [2], the % displacement (hIL-23R binding) worked out at 97% and the IC50 was 0.011 nM. With [4‑Aminomethyl‑phenylacetyl]SEWQ[Dab][AEF][2Nal][αMeL]ES[3Pal]-NHMe (lactam N-10, 3-6) [Compound 31], the % displacement (hIL-23R binding) in series [2] was determined as 97%. Still for that read-out and setting: to [4‑Aminomethyl‑phenylacetyl]SEW[Cit][Dab][AEF][2Nal][αMeL]E[Dab][3Pal]-NHMe (lactam (positions not given here); lactam 3-6; not fully specified (bridges)) [Compound 26] belongs 95%; to [4‑Aminomethyl‑phenylacetyl]SEW[Q(2Me)][Dab][AEF][2Nal][αMeL]E[Dab][3Pal]-NHMe (lactam N-10, 3-6) [Compound 30], 104%.

B5: Compound 40 (peptide)
peptide: [4‑Aminomethyl‑phenylacetyl]AEWQ[Dab][AEF][2Nal][αMeL]ES[3Pal]-NHMe
modifications: lactam N-10, 3-6
SMILES: CNC(=O)[C@H](Cc1cccnc1)NC(=O)[C@H](CO)NC(=O)[C@@H]1CCC(=O)NCc2ccc(cc2)CC(=O)N[C@@H](C)C(=O)N[C@H]2CCC(=O)NCC[C@H](NC(=O)[C@H](CCC(N)=O)NC(=O)[C@H](Cc3c[nH]c4ccccc34)NC2=O)C(=O)N[C@@H](Cc2ccc(OCCN)cc2)C(=O)N[C@@H](Cc2ccc3ccccc3c2)C(=O)N[C@@](C)(CC(C)C)C(=O)N1
Take B5: the % displacement (hIL-23R binding) in series [2] was 100%. In series [2], [4‑Aminomethyl‑phenylacetyl]SEW[Q(Me)][Dab][AEF][2Nal][αMeL]E[Dab][3Pal]-NHMe (lactam N-10, 3-6; reading uncertain) [Compound 29] displayed a % displacement (hIL-23R binding) of 96% and an IC50 of 0.011 nM. In the same order, the values of [4‑Aminomethyl‑phenylacetyl]SEW[Dab](Ac)[Dab][AEF][2Nal][αMeL]E[Dab][3Pal]-NHMe (lactam (positions not given here); lactam 3-6; not fully specified (bridges)) [Compound 25] are 93% and 0.011 nM. For [4‑Aminomethyl‑phenylacetyl]SEW[Q(pyrrolidin)(3)][Dab][AEF][2Nal][αMeL]E[Dab][3Pal]-NHMe (lactam N-10, 3-6) [Compound 27], in that order: 97% and 0.017 nM.
